Series [1] addresses galactosidase-PAR3 (GPAR3) fusion protein.
The target in series [2] is GPAR2^R34S activation site mutant fusion protein.
In series [3] the target is galactosidase-PAR4 (GPAR4) fusion protein.
Series [4] deals with galactosidase-PAR1 (GPAR1) fusion protein [β-galactosidase: P00722].
For series [5], the target named is GPAR4^R47S activation site mutant fusion protein.
The target in series [6] is GPAR3^K37S activation site mutant fusion protein.
Series [7] deals with activation site mutant fusion protein GPAR1^R45S.
Series [8] concerns the target galactosidase-PAR2 (GPAR2) fusion protein.

Chain of galactosidase-PAR2 (GPAR2) fusion protein (chain, as listed by the source, chain 1 of 2): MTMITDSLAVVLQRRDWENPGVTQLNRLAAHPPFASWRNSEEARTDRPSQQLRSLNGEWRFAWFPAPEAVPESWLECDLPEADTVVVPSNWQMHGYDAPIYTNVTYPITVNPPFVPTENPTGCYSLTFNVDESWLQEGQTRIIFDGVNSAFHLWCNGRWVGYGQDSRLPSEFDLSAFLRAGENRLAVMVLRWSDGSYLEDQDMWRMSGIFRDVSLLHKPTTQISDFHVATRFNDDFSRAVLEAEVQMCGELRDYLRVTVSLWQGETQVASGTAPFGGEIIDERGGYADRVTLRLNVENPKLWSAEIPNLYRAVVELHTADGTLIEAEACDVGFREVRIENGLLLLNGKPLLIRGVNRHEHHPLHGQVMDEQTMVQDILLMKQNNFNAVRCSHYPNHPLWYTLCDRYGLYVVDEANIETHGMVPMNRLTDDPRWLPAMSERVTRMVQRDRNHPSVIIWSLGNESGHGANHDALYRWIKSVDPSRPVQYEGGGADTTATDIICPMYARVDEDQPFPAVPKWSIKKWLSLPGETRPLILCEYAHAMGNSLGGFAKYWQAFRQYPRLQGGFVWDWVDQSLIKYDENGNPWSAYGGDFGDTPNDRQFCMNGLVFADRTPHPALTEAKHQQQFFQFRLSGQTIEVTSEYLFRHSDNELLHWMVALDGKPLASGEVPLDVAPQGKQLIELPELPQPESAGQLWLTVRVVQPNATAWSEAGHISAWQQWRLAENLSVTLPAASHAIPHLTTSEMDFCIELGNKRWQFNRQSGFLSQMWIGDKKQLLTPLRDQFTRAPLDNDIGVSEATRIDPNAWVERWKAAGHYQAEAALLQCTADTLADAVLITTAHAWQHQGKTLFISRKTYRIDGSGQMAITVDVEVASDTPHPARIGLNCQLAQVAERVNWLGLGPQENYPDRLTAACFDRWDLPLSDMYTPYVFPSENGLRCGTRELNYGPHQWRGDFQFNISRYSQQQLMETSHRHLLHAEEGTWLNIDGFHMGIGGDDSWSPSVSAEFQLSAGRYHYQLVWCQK
Chain of galactosidase-PAR2 (GPAR2) fusion protein (chain, as listed by the source, chain 2 of 2): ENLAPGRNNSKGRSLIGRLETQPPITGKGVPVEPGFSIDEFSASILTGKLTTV
Chain of galactosidase-PAR1 (GPAR1) fusion protein [β-galactosidase: P00722] (P00722 whole entry, chain 1 of 2, the tested form may be a part): as the sequence (chain, as listed by the source, chain 1 of 2) above
Chain of galactosidase-PAR1 (GPAR1) fusion protein [β-galactosidase: P00722] (chain, as listed by the source, chain 2 of 2): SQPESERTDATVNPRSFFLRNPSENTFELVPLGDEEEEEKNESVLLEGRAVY
Chain of galactosidase-PAR4 (GPAR4) fusion protein (chain, as listed by the source, chain 1 of 2): as the sequence (chain, as listed by the source, chain 1 of 2) above
Chain of galactosidase-PAR4 (GPAR4) fusion protein (chain, as listed by the source, chain 2 of 2): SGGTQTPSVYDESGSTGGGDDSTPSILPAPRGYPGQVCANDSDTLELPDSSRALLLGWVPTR
Chain of galactosidase-PAR3 (GPAR3) fusion protein (chain, as listed by the source, chain 1 of 2): as the sequence (chain, as listed by the source, chain 1 of 2) above
Chain of galactosidase-PAR3 (GPAR3) fusion protein (chain, as listed by the source, chain 2 of 2): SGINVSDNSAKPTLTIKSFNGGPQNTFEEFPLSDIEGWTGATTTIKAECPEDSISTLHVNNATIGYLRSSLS
Chain of GPAR4^R47S activation site mutant fusion protein (chain, as listed by the source R47S, chain 1 of 2): as the sequence (chain, as listed by the source, chain 1 of 2) above, with R47S counted along it
Chain of GPAR4^R47S activation site mutant fusion protein (chain, as listed by the source R47S, chain 2 of 2): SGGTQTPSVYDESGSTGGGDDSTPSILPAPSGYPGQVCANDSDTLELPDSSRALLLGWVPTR

B1: human single-chain tPA (protein)
chain: SYQVICRDEKTQMIYQQHQSWLRPVLRSNRVEYCWCNSGRAQCHSVPVKSCSEPRCFNGGTCQQALYFSDFVCQCPEGFAGKCCEIDTRATCYEDQGISYRGTWSTAESGAECTNWNSSALAQKPYSGRRPDAIRLGLGNHNYCRNPDRDSKPWCYVFKAGKYSSEFCSTPACSEGNSDCYFGNGSAYRGTHSLTESGASCLPWNSMILIGKVYTAQNPSAQALGLGKHNYCRNPDGDAKPWCHVLKNRRLTWEYCDVPSCSTCGLRQYSQPQFRIKGGLFADIASHPWQAAIFAKHRRSPGERFLCGGILISSCWILSAAHCFQERFPPHHLTVILGRTYRVVPGEEEQKFEVEKYIVHKEFDDDTYDNDIALLQLKSDSSRCAQESSVVRTVCLPPADLQLPDWTECELSGYGKHEALSPFYSERLKEAHVRLYPSSRCTSQHLLNRTVTDNMLCAGDTRSGGPQANLHDACQGDSGGPLVCLNDGRMTLVGIISWGLGCGQKDVPGVYTKVTNYLDWIRDNMRP
Take B1: the β-Galactosidase release rate (mmol β-Galactosidase/(molProtease * min)) in series [1] is 0.03; in series [2], at most 0.01; in series [3], at most 0.01; in series [4] it was at most 0.01; in series [5], at most 0.01; in series [6] it was at most 0.01. Further, the β-Galactosidase release rate (mmol β-Galactosidase/(molProtease * min)) in series [7] and in series [8] was at most 0.01 each time.

B2: human plasmin (protein)
chain: KVYLSECKTGNGKNYRGTMSKTKNGITCQKWSSTSPHRPRFSPATHPSEGLEENYCRNPDNDPQGPWCYTTDPEKRYDYCDILECEEECMHCSGENYDGKISKTMSGLECQAWDSQSPHAHGYIPSKFPNKNLKKNYCRNPDRELRPWCFTTDPNKRWELCDIPRCTTPPPSSGPTYQCLKGTGENYRGNVAVTVSGHTCQHWSAQTPHTHNRTPENFPCKNLDENYCRNPDGKRAPWCHTTNSQVRWEYCKIPSCDSSPVSTEQLAPTAPPELTPVVQDCYHGDGQSYRGTSSTTTTGKKCQSWSSMTPHRHQKTPENYPNAGLTMNYCRNPDADKGPWCFTTDPSVRWEYCNLKKCSGTEASVVAPPPVVLLPDVETPSEEDCMFGNGKGYRGKRATTVTGTPCQDWAAQEPHRHSIFTPETNPRAGLEKNYCRNPDGDVGGPWCYTTNPRKLYDYCDVPQCAAPSFDCGKPQVEPKKCPGRVVGGCVAHPHSWPWQVSLRTRFGMHFCGGTLISPEWVLTAAHCLEKSPRPSSYKVILGAHQEVNLEPHVQEIEVSRLFLEPTRKDIALLKLSSPAVITDKVIPACLPSPNYVVADRTECFITGWGETQGTFGAGLLKEAQLPVIENKVCNRYEFLNGRVQSTELCAGHLAGGTDSCQGDSGGPLVCFEKDKYILQGVTSWGLGCARPNKPGVYVRVSRFVTWIEGVMRNN
Consider B2, for which the “activity on GPAR3, against thrombin” value in series [1] is “about 120 times less active than thrombin”. Further, the β-Galactosidase release rate (mmol β-Galactosidase/(molProtease * min)) amounted to 0.34 in series [1]; 0.35 in series [2]; 0.48 in series [3]; 4.1 in series [4]; 0.26 in series [5]; 0.16 in series [6]. The β-Galactosidase release rate (mmol β-Galactosidase/(molProtease * min)) in series [7] is 0.29; in series [8], 0.67. Moreover, in series [8], the “cleavage efficiency, against GPAR2^R34S” value is “Plasmin cleaved GPAR2 two times more efficiently than GPAR2^R34S”. Further, in series [8], the “cleavage rate, against trypsin” value is “only at a 560 fold lower rate than trypsin”.

B3: human leukocyte elastase (protein)
chain: IVGGRRARPHAWPFMVSLQLRGGHFCGATLIAPNFVMSAAHCVANVNVRAVRVVLGAHNLSRREPTRQVFAVQRIFENGYDPVNLLNDIVILQLNGSATINANVQVAQLPAQGRRLGNGVQCLAMGWGLLGRNRGIASVLQELNVTVVTSLCRRSNVCTLVRGRQAGVCFGDSGSPLVCNGLIHGIASFVRGGCASGLYPDAFAPVAQFVNWIDSIIQ
Turning to B3, the β-Galactosidase release rate (mmol β-Galactosidase/(molProtease * min)) in series [1] was determined as 50; in series [2] it was 16; in series [3], 12; in series [4], 78; in series [5] it was 11; in series [6], 93. Also, the values for the β-Galactosidase release rate (mmol β-Galactosidase/(molProtease * min)) in series [7] and in series [8] were 140 and 24, respectively.

B4: bovine activated protein C (protein)
chain: ANSFLEELRPGNVERECSEEVCEFEEAREIFQNTEDTMAFWSFYSDGDQCEDRPSGSPCDLPCCGRGKCIDGLGGFRCDCAEGWEGRFCLHEVRFSNCSAENGGCAHYCMEEEGRRHCSCAPGYRLEDDHQLCVSKVTFPCGRLGKRMEKKRKTLKRDTNQVDQKDQLDPRIVDGQEAGWGESPWQAVLLDSKKKLVCGAVLIHVSWVLTVAHCLDSRKKLIVRLGEYDMRRWESWEVDLDIKEVIIHPNYTKSTSDNDIALLRLAKPATLSQTIVPICLPDSGLSERKLTQVGQETVVTGWGYRDETKRNRTFVLSFIKVPVVPYNACVHAMENKISENMLCAGILGDPRDACEGDSGGPMVTFFRGTWFLVGLVSWGEGCGRLYNYGVYTKVSRYLDWIYGHIKAQEAPLESQVP
Consider B4, for which the “β-Galactosidase release rate (determined in the presence of hirudin)” value in series [1] and in series [4] was “≦1 * 10^-2 a” throughout. Further, the β-Galactosidase release rate (mmol β-Galactosidase/(molProtease * min)) in series [2], in series [3], in series [5], in series [6], in series [7] and in series [8] was at most 0.01 throughout.

These data come from patent US20030148921.
